The values that follow come from patent US20140271457A1 (AbbVie / Abbott, published 2014).

Bounds are passed on as bounds.

In test [1] the target is T1, Recombinant Human TNF-α/TNFSF1A (human, UniProt P01375 77-233).
T1 construct: vendor reagent is named for Biacore; the neutralization assay says only huTNFα; also called huTNFα
Put plainly: Biacore SPR. The essentials: (§1)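 Antibodies or DVD-Ig captured on anti-mouse IgG (Fcγ) CM5 surface, SPR at 25 °C in HBS-EP+. Antigen at 0.8–100 nM, 50 μl/min; association 5 min, dissociation 10 min. kon and koff came from a global 1:1 fit with local Rmax.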
(In general: In SPR one partner is held on a chip, and binding of the other changes the refractive index at the surface.)

Another test concerns the target Recombinant Human IL-13 (human, UniProt P35225 35-146, limits assumed). Put plainly: Biacore SPR. The essentials:
as §1

For test [2], the target named is T1, Recombinant Human TNF-α/TNFSF1A. Put plainly: cell-based or functional assay.
The next test has as its target Recombinant Human β-NGF (human, UniProt P01138 122-241). As to the kind of experiment: cell-based or functional assay.

Sequence of Recombinant Human IL-13 (P35225 35-146 limits assumed): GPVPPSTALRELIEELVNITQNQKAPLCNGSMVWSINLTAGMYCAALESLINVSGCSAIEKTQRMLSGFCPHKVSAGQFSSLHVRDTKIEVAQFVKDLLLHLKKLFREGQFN
Sequence of Recombinant Human β-NGF (P01138 122-241 limits assumed): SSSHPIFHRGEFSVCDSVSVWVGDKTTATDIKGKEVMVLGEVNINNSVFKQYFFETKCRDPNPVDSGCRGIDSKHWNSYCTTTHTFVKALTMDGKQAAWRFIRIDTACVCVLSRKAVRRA
T1 sequence (P01375 77-233 limits assumed): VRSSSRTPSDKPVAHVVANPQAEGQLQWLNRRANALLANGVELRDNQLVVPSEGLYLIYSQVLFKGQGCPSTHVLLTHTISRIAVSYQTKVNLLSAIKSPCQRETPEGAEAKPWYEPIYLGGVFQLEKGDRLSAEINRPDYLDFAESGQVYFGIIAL

B1: DVD3107 (bispecific antibody, IgG1)
VH: EVQLVQSGAEVKKPGASVKVSCKASGYTFANYGIIWVRQAPGQGLEWMGWINTYTGKPTYAQKFQGRVTMTTDTSTSTAYMELSSLRSEDTAVYYCARKLFTTMDVTDNAMDYWGQGTTVTVSSASTKGPSVFPLAPEVQLVQSGAEVKKPGASVKVSCKASGYTFTTYGVSWVRQAPGQGLEWMGEIYPGNYNTYYNEKFRGRVTMTTDTSTSTAYMELRSLRSDDTAVYYCARWRTSYFSDYGYFDYWGQGTTVTVSS
VL: DIQMTQSPSSLSASVGDRVTITCRASQDISQYLNWYQQKPGKAPKLLIYYTSRLQSGVPSRFSGSGSGTDFTLTISSLQPEDFATYFCQQGNTWPPTFGQGTKLEIKRTVAAPDVVMTQSPLSLPVTLGQPASISCRSSQSLVHSHGNTYLHWYQQRPGQSPRLLIYTVSNRFSGVPDRFSGSGSGTDFTLKISRVEAEDVGVYYCSQSTHVPYTFGGGTKVEIKR
notes: DVD-Ig; wt hIgG1 + kappa constants
As a reminder, the Kd is a measure of binding affinity in units of concentration. As usually defined, the koff is the rate constant with which the complex falls apart. As a reminder, the kon is the rate constant with which the complex forms. For the molecule B1, in test [1], the Kd stood at 0.053 nM, the koff is 0.00015 s⁻¹ and the kon came out at 2.8e+06 M⁻¹ s⁻¹. Further, in the test with Recombinant Human IL-13, the Kd turned out to be 0.087 nM, the koff worked out at 7e-05 s⁻¹ and the kon was 810000 M⁻¹ s⁻¹. For the same molecule, in test [2], the “N-Terminal VD huTNFα Neutralization Assay IC50” value amounted to 0.015 nM.

B2: AB441 (antibody, V domains shown)
VH: EVQLVQSGAEVKKPGASVKVSCKASGYTFANYGIIWVRQAPGQGLEWMGWINTYTGKPTYAQKFQGRVTMTTDTSTSTAYMELSSLRSEDTAVYYCARKLFTTMDVTDNAMDYWGQGTTVTVSS
VL: DIQMTQSPSSLSASVGDRVTITCRASQDISQYLNWYQQKPGKAPKLLIYYTSRLQSGVPSRFSGSGSGTDFTLTISSLQPEDFATYFCQQGNTWPPTFGQGTKLEIKR
notes: parent antibody
Regarding B2, in test [1], the Kd was 0.0024 nM, the koff turned out to be 1.8e-05 s⁻¹ and the kon came to 7.5e+06 M⁻¹ s⁻¹. Also, the “huTNFα Neutralization Assay IC50” value in test [2] came to 0.037 nM.

B3: DVD3038 (bispecific antibody, IgG1)
VH: EVQLVQSGAEVKKPGASVKVSCKASGYTFNNYGIIWVRQAPGQGLEWMGWINTYTGKPTYAQKFQGRVTMTTDTSTSTAYMELSSLRSEDTAVYYCARKLFNTVAVTDNAMDYWGQGTTVTVSSGGGGSGGGGSEVQLVESGGGLVQPGGSLRLSCAASGFSLTNNNVNWVRQAPGKGLEWVGGVWAGGATDYNSALKSRFTISRDNSKNTAYLQMNSLRAEDTAVYYCARDGGYSSSTLYAMDAWGQGTLVTVSS
VL: DIQMTQSPSSLSASVGDRVTITCRASQDIENYLNWYQQKPGKAPKLLIYYTSRLQSGVPSRFSGSGSGTDFTLTISSLQPEDFATYFCQQGNTQPPTFGQGTKLEIKRGGSGGGGSGDIQMTQSPSSLSASVGDRVTITCRASEDIYNALAWYQQKPGKAPKLLIYNTDTLHTGVPSRFSGSGSGTDYTLTISSLQPEDFATYFCQHYFHYPRTFGQGTKVEIKR
As for B3, the “N-Terminal VD huTNFα Neutralization Assay IC50” value in test [2] came out at 0.002 nM. Also, in the test with Recombinant Human β-NGF, the “C-Terminal VD NGF Neutralization Assay IC50” value worked out at 0.093 nM.

B4: DVD3046 (bispecific antibody, IgG1)
VH: EVQLVESGGGLVQPGGSLRLSCAASGFSLTNNNVNWVRQAPGKGLEWVGGVWAGGATDYNSALKSRFTISRDNSKNTAYLQMNSLRAEDTAVYYCARDGGYSSSTLYAMDAWGQGTLVTVSSASTKGPEVQLVQSGAEVKKPGASVKVSCKASGYTFNNYGIIWVRQAPGQGLEWMGWINTYTGKPTYAQKFQGRVTMTTDTSTSTAYMELSSLRSEDTAVYYCARKLFNTVAVTDNAMDYWGQGTTVTVSS
VL: DIQMTQSPSSLSASVGDRVTITCRASEDIYNALAWYQQKPGKAPKLLIYNTDTLHTGVPSRFSGSGSGTDYTLTISSLQPEDFATYFCQHYFHYPRTFGQGTKVEIKRTVAAPSVFIFPPDIQMTQSPSSLSASVGDRVTITCRASQDIENYLNWYQQKPGKAPKLLIYYTSRLQSGVPSRFSGSGSGTDFTLTISSLQPEDFATYFCQQGNTQPPTFGQGTKLEIKR
Consider B4, for which the “C-Terminal VD huTNFα Neutralization Assay IC50” value in test [2] is 0.05 nM. In the test with Recombinant Human β-NGF, the “N-Terminal VD NGF Neutralization Assay IC50” value came to 0.145 nM.

B5: DVD3106 (bispecific antibody, IgG1)
VH: EVQLVQSGAEVKKPGASVKVSCKASGYTFANYGIIWVRQAPGQGLEWMGWINTYTGKPTYAQKFQGRVTMTTDTSTSTAYMELSSLRSEDTAVYYCARKLFTTMDVTDNAMDYWGQGTTVTVSSASTKGPEVQLVQSGAEVKKPGASVKVSCKASGYTFTTYGVSWVRQAPGQGLEWMGEIYPGNYNTYYNEKFRGRVTMTTDTSTSTAYMELRSLRSDDTAVYYCARWRTSYFSDYGYFDYWGQGTTVTVSS
VL: DIQMTQSPSSLSASVGDRVTITCRASQDISQYLNWYQQKPGKAPKLLIYYTSRLQSGVPSRFSGSGSGTDFTLTISSLQPEDFATYFCQQGNTWPPTFGQGTKLEIKRTVAAPSVFIFPPDVVMTQSPLSLPVTLGQPASISCRSSQSLVHSHGNTYLHWYQQRPGQSPRLLIYTVSNRFSGVPDRFSGSGSGTDFTLKISRVEAEDVGVYYCSQSTHVPYTFGGGTKVEIKR
notes: as for B1
As for B5, in test [1], the Kd was found to be 0.022 nM, the koff stood at 8.5e-05 s⁻¹ and the kon was determined as 3.9e+06 M⁻¹ s⁻¹. In addition, in the test with Recombinant Human IL-13, the Kd was 0.11 nM, the koff was 6.4e-05 s⁻¹ and the kon was 570000 M⁻¹ s⁻¹. Moreover, the “N-Terminal VD huTNFα Neutralization Assay IC50” value in test [2] came out at 0.018 nM.

B6: DVD2822 (bispecific antibody, IgG1)
VH: EVQLVESGGGLVQPGGSLRLSCAASGFSLTNNNVNWVRQAPGKGLEWVGGVWAGGATDYNSALKSRFTISRDNSKNTAYLQMNSLRAEDTAVYYCARDGGYSSSTLYAMDAWGQGTLVTVSSASTKGPSVFPLAPEVQLVQSGAEVKKPGASVKVSCKASGYTFANYGIIWVRQAPGQGLEWMGWINTYTGKPTYAQKFQGRVTMTTDTSTSTAYMELSSLRSEDTAVYYCARKLFTTMDVTDNAMDYWGQGTTVTVSS
VL: DIQMTQSPSSLSASVGDRVTITCRASEDIYNALAWYQQKPGKAPKLLIYNTDTLHTGVPSRFSGSGSGTDYTLTISSLQPEDFATYFCQHYFHYPRTFGQGTKVEIKRTVAAPDIQMTQSPSSLSASVGDRVTITCRASQDISQYLNWYQQKPGKAPKLLIYYTSRLQSGVPSRFSGSGSGTDFTLTISSLQPEDFATYFCQQGNTWPPTFGQGTKLEIKR
B6: in test [2], the “C-Terminal VD huTNFα Neutralization Assay IC50” value came to 0.107 nM. The “N-Terminal VD NGF Neutralization Assay IC50” value with Recombinant Human β-NGF was determined as 0.003 nM.

B7: DVD3163 (bispecific antibody, IgG1)
VH: EVQLVQSGAEVKKPGASVKVSCKASGYTFANYGIIWVRQAPGQGLEWMGWINTYTGKPTYAQKFQGRVTMTTDTSTSTAYMELSSLRSEDTAVYYCARKLFTTMDVTDNAMDYWGQGTTVTVSSGGGGSGGGGSEVQLVQSGAEVKKPGASVKVSCKASGYTFTSYWMHWVRQAPGQGLEWIGNINPKGGSNIYNEKFQGRVTMTRDTSISTAYMELSRLRSDDTAVYYCARLDYFGDSFDLWGQGTTVTVSS
VL: DIQMTQSPSSLSASVGDRVTITCRASQDISQYLNWYQQKPGKAPKLLIYYTSRLQSGVPSRFSGSGSGTDFTLTISSLQPEDFATYFCQQGNTWPPTFGQGTKLEIKRGGSGGGGSGDIQMTQSPSSLSASVGDRVTITCRASQGIRNYLNWYQQKPGKAPKLLIYYASNLEVGVPSRFSGSGSGTDYTLTISSLQPEDFATYYCQQDNRFPYTFGGGTKVEIKR
notes: as for B1
B7: in test [1], the Kd was determined as 0.0039 nM, the koff turned out to be 5e-05 s⁻¹ and the kon came to 1.3e+07 M⁻¹ s⁻¹. In the test with Recombinant Human IL-13, the Kd worked out at 0.61 nM, the koff is 8.4e-05 s⁻¹ and the kon was found to be 140000 M⁻¹ s⁻¹. Also, the “N-Terminal VD huTNFα Neutralization Assay IC50” value in test [2] came out at 0.015 nM.

B8: DVD3039 (bispecific antibody, IgG1)
VH: EVQLVQSGAEVKKPGASVKVSCKASGYTFNNYGIIWVRQAPGQGLEWMGWINTYTGKPTYAQKFQGRVTMTTDTSTSTAYMELSSLRSEDTAVYYCARKLFNTVAVTDNAMDYWGQGTTVTVSSASTKGPEVQLVESGGGLVQPGGSLRLSCAASGFSLTNNNVNWVRQAPGKGLEWVGGVWAGGATDYNSALKSRFTISRDNSKNTAYLQMNSLRAEDTAVYYCARDGGYSSSTLYAMDAWGQGTLVTVSS
VL: DIQMTQSPSSLSASVGDRVTITCRASQDIENYLNWYQQKPGKAPKLLIYYTSRLQSGVPSRFSGSGSGTDFTLTISSLQPEDFATYFCQQGNTQPPTFGQGTKLEIKRTVAAPDIQMTQSPSSLSASVGDRVTITCRASEDIYNALAWYQQKPGKAPKLLIYNTDTLHTGVPSRFSGSGSGTDYTLTISSLQPEDFATYFCQHYFHYPRTFGQGTKVEIKR
Consider B8, for which the “N-Terminal VD huTNFα Neutralization Assay IC50” value in test [2] was 0.012 nM. For the same molecule, in the test with Recombinant Human β-NGF, the “C-Terminal VD NGF Neutralization Assay IC50” value was determined as 0.088 nM.

B9: DVD3041 (bispecific antibody, IgG1)
VH: EVQLVQSGAEVKKPGASVKVSCKASGYTFNNYGIIWVRQAPGQGLEWMGWINTYTGKPTYAQKFQGRVTMTTDTSTSTAYMELSSLRSEDTAVYYCARKLFNTVAVTDNAMDYWGQGTTVTVSSASTKGPEVQLVESGGGLVQPGGSLRLSCAASGFSLTNNNVNWVRQAPGKGLEWVGGVWAGGATDYNSALKSRFTISRDNSKNTAYLQMNSLRAEDTAVYYCARDGGYSSSTLYAMDAWGQGTLVTVSS
VL: DIQMTQSPSSLSASVGDRVTITCRASQDIENYLNWYQQKPGKAPKLLIYYTSRLQSGVPSRFSGSGSGTDFTLTISSLQPEDFATYFCQQGNTQPPTFGQGTKLEIKRTVAAPSVFIFPPDIQMTQSPSSLSASVGDRVTITCRASEDIYNALAWYQQKPGKAPKLLIYNTDTLHTGVPSRFSGSGSGTDYTLTISSLQPEDFATYFCQHYFHYPRTFGQGTKVEIKR
With B9, in test [2], the “N-Terminal VD huTNFα Neutralization Assay IC50” value came to 0.006 nM. In addition, the “C-Terminal VD NGF Neutralization Assay IC50” value with Recombinant Human β-NGF was over 10 nM.

B10: DVD3042 (bispecific antibody, IgG1)
VH: EVQLVQSGAEVKKPGASVKVSCKASGYTFNNYGIIWVRQAPGQGLEWMGWINTYTGKPTYAQKFQGRVTMTTDTSTSTAYMELSSLRSEDTAVYYCARKLFNTVAVTDNAMDYWGQGTTVTVSSASTKGPSVFPLAPEVQLVESGGGLVQPGGSLRLSCAASGFSLTNNNVNWVRQAPGKGLEWVGGVWAGGATDYNSALKSRFTISRDNSKNTAYLQMNSLRAEDTAVYYCARDGGYSSSTLYAMDAWGQGTLVTVSS
VL: DIQMTQSPSSLSASVGDRVTITCRASQDIENYLNWYQQKPGKAPKLLIYYTSRLQSGVPSRFSGSGSGTDFTLTISSLQPEDFATYFCQQGNTQPPTFGQGTKLEIKRTVAAPDIQMTQSPSSLSASVGDRVTITCRASEDIYNALAWYQQKPGKAPKLLIYNTDTLHTGVPSRFSGSGSGTDYTLTISSLQPEDFATYFCQHYFHYPRTFGQGTKVEIKR
B10: the “N-Terminal VD huTNFα Neutralization Assay IC50” value in test [2] worked out at 0.006 nM. Moreover, the “C-Terminal VD NGF Neutralization Assay IC50” value with Recombinant Human β-NGF is over 10 nM.
